These results are taken from paper doi:10.1101/2022.04.26.489478, “Shuffled ATG8 interacting motifs form an ancestral bridge between UFMylation and C53-mediated autophagy” (bioRxiv, 2022).

This experiment addresses T1, mCherry tagged HsC53 (human, UniProt Q96JB5 1-506).
T1 construct: C53 (CDK5RAP3), Homo sapiens; also called human C53; mCh-HsC53; source: E. coli Rosetta2 (DE3) pLysS, purified (HisTrap, ion exchange, SEC)
T1 sequence (looked up): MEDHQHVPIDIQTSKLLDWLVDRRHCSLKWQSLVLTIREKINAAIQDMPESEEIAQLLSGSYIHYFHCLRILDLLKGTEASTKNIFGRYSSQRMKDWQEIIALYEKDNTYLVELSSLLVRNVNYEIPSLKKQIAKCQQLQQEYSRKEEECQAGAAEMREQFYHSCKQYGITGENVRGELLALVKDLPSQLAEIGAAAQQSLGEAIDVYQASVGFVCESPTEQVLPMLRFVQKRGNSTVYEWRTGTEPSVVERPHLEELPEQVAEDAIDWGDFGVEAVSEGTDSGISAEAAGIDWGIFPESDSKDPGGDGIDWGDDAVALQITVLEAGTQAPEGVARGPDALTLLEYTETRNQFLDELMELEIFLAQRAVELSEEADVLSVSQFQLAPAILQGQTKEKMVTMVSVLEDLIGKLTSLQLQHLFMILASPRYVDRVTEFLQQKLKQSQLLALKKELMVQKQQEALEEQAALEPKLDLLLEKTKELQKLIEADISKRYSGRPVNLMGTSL
In words: microscopy-based on-bead protein-protein interaction assay; GST-tagged bait (2 µM) on Glutathione Sepharose 4B beads, 1 µM mCherry tagged partner with or without competitor, 25 mM HEPES pH 7.5, 150 mM NaCl, 1 mM DTT, 30-60 min at RT, confocal imaging; fluorescence normalized to the control condition. Particulars: both partners purified.

B1: GST-GABARAP (natural protein, human, UniProt O95166 1-117, looked up)
chain: MKFVYKEEHPFEKRRSEGEKIRKKYPDRVPVIVEKAPKARIGDLDKKKYLVPSDLTVGQFYFLIRKRIHLRAEDALFFFVNNVIPPTSATMGQLYQEHHEEDFFLYIAYSDESVYGL
notes: GABARAP, human ATG8 isoform; also called human ATG8 isoform GABARAP; source: E. coli Rosetta2 (DE3) pLysS; in bacterial lysate (pull-downs) and purified (on-bead assays)
Regarding B1, the binding result was “binds”.
